In paper PMC3079738:

Target: human CD81 expressed on transfected CHO cells (human) (UniProt P60033)
Assay: flow cytometry on cells; CHO cells transfected with human CD81 plasmid (or naive), 5x10^5 cells incubated with crude 293T cell extract containing E2 for 1 h at room temperature in PBS, 2% fetal calf serum, 0.05% NaN3; detected with goat anti-E2 and FITC anti-goat IgG; MFI as percent of wild type E2 on CHO-CD81

UniProt P60033, sequence (P60033 whole entry): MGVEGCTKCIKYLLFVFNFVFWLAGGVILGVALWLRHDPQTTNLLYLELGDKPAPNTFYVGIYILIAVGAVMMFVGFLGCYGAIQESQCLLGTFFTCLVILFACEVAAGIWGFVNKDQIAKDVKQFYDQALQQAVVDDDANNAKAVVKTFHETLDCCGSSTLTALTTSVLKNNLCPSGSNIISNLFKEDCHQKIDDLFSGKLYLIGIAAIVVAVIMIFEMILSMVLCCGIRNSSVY

## E2-W529/A, mutant of the carboxyl terminal truncated HCV E2 protein (aa 364-661), strain H77 (from UniProt P27958 364-661) (domain or fragment)
  CD81 binding activity as percent of the wild type protein (MFI): < 5%
